From publication doi:10.1101/2023.05.11.540447v1

Experiments:
[1] = substrate: CC(=O)N[C@H]1[C@@H](OP(=O)(O)OP(=O)(O)OC[C@H]2O[C@@H](n3ccc(=O)[nH]c3=O)[C@H](O)[C@@H]2O)O[C@H](CO)[C@@H](O)[C@@H]1O; experiment: purified protein; conditions: UDP-GlcA fixed at 2.5 mM, Mg2+, 37 °C, GDN detergent
[2] = substrate: O=C(O)[C@H]1O[C@H](OP(=O)(O)OP(=O)(O)OC[C@H]2O[C@@H](n3ccc(=O)[nH]c3=O)[C@H](O)[C@@H]2O)[C@H](O)[C@@H](O)[C@@H]1O; experiment: purified protein; conditions: UDP-GlcNAc fixed at 2.5 mM, Mg2+, 37 °C, GDN detergent

B1: Xl-HAS-1 (Xenopus laevis) (protein)
chain: MKEKAAETMEIPEGIPKDLEPKHPTLWRIIYYSFGVVLLATITAAYVAEFQVLKHEAILFSLGLYGLAMLLHLMMQSLFAFLEIRRVNKSELPCSFKKTVALTIAGYQENPEYLIKCLESCKYVKYPKDKLKIILVIDGNTEDDAYMMEMFKDVFHGEDVGTYVWKGNYHTVKKPEETNKGSCPEVSKPLNEDEGINMVEELVRNKRCVCIMQQWGGKREVMYTAFQAIGTSVDYVQVCDSDTKLDELATVEMVKVLESNDMYGAVGGDVRILNPYDSFISFMSSLRYWMAFNVERACQSYFDCVSCISGPLGMYRNNILQVFLEAWYRQKFLGTYCTLGDDRHLTNRVLSMGYRTKYTHKSRAFSETPSLYLRWLNQQTRWTKSYFREWLYNAQWWHKHHIWMTYESVVSFIFPFFITATVIRLIYAGTIWNVVWLLLCIQIMSLFKSIYACWLRGNFIMLLMSLYSMLYMTGLLPSKYFALLTLNKTGWGTSGRKKIVGNYMPILPLSIWAAVLCGGVGYSIYMDCQNDWSTPEKQKEMYHLLYGCVGYVMYWVIMAVMYWVWVKRCCRKRSQTVTLVHDIPDMCV
[1]
  Km: 470 µM
[2]
  Km: 370 µM
